In article PMC3503730, “Enhanced thermostability of a Rhizopus chinensis lipase by in vivo recombination in Pichia pastoris” (Microbial Cell Factories, 2012):

Substrate: CCCCCCCCCCCCCCCC(=O)Oc1ccc([N+](=O)[O-])cc1
Experiment: p-nitrophenol release, Lineweaver-Burk
Assay type: biochemical, Rhizopus microsporus
Details: emulsified substrate, 40°C, pH 8.5, printed Km unit is a misprint, printed kcat/Km 6.22 × 10^4 M^-1 s^-1 implies mM
Excerpt: p-nitrophenol release, Lineweaver-Burk on r27RCL

B1: r27RCL (Rhizopus microsporus var. chinensis) (protein)
chain: DTETVGGMTLDLPENPPPIPATSTAPSSDSGEVVTATAAQIKELTNYAGVAATAYCRSVVPGTKWDCKQCLKYVPDGKLIKTFTSLLTDTNGFILRSDAQKTIYVTFRGTNSFRSAITDMVFTFTDYSPVKGAKVHAGFLSSYNQVVKDYFPVVQDQLTAYPDYKVIVTGHSLGGAQALLAGMDLYQREKRLSPKNLSIYTVGCPRVGNNAFAYYVDSTGIPFHRTVHKRDIVPHVPPQAFGYLHPGVESWIKEDPADVQICTSNIETKQCSNSIVPFTSIADHLTYFGINEGSCL
notes: proRCL gene in pPIC9K, secreted from Pichia pastoris GS115, purified on SP-Sepharose and Phenyl-Sepharose
Work on B1 yielded a kcat of 18.9 s⁻¹ and a kcat/Km of 62200 M⁻¹ s⁻¹.
